In patent US20130230510A1:
Each block holds one molecule with its values, some of them ahead of it.

What was measured:
[1] = biological target: CD123 (human IL-3Rα) (human) (UniProt P26951); assay: method not stated (indicative KD)
[2] = biological target: CD123 (human IL-3Rα) on cells (human) (UniProt P26951); assay: cell-based or functional assay
[3] = biological target: CD123 (human IL-3Rα) (human) (UniProt P26951); assay: method not stated
[4] = biological target: CD123 (human IL-3Rα) on cells (human) (UniProt P26951); assay: cell-based or functional assay; remark: listed apart in the source

Kd [1]: 1.06 nM
% CD107a positive NK cells, RMH003 AML target cells, CSL360 10 µg/mL (FIG. 8B) [2]: 39%
% lysis, 51Cr release ADCC, CTLEN cells, E:T 10:1 [2]: 10%
% lysis, 51Cr release ADCC, CTLEN cells, E:T 100:1 [2]: 51%
% lysis, 51Cr release ADCC, SL (AML) cells, E:T 10:1 [2]: 2.4%
% lysis, 51Cr release ADCC, SL (AML) cells, E:T 100:1 [2]: 15%
% lysis, calcein release ADCC, RBH013 (AML), E:T 10:1 [2]: 0%
% lysis, calcein release ADCC, RBH013 (AML), E:T 100:1 [2]: 0%
% lysis, calcein release ADCC, RMH003 (AML), E:T 10:1 [2]: 39.2%
% lysis, calcein release ADCC, RMH003 (AML), E:T 100:1 [2]: 82.6%
% lysis, calcein release ADCC, RMH008 (AML), E:T 10:1 [2]: 59.5%
% lysis, calcein release ADCC, RMH008 (AML), E:T 100:1 [2]: 100%
% lysis, calcein release ADCC, RMH009 (B-ALL), E:T 10:1 [2]: 0%
% lysis, calcein release ADCC, RMH009 (B-ALL), E:T 100:1 [2]: 0%
% lysis, calcein release ADCC, RMH009* (B-ALL), repeat with other PBMC, E:T 10:1 [2]: 0%
% lysis, calcein release ADCC, RMH009* (B-ALL), repeat with other PBMC, E:T 100:1 [2]: 0%
% lysis, calcein release ADCC, RMH010 (AML), E:T 10:1 [2]: 4%
% lysis, calcein release ADCC, RMH010 (AML), E:T 100:1 [2]: 0%
% of NK cells expressing CD107a, E:T 1:1, target CTLEN-001 [2]: 6.7%
% of NK cells expressing CD107a, E:T 1:1, target CTLEN-008 [2]: 24%
% of NK cells expressing CD107a, E:T 1:1, target CTLEN-010 [2]: 5.7%
% of NK cells expressing CD107a, E:T 1:1, target CTLEN-011-PBMC-1 [2]: 8.1%
% of NK cells expressing CD107a, E:T 1:1, target CTLEN-011-PBMC-2 [2]: 10.5%
% of NK cells expressing CD107a, E:T 1:1, target EL4hi-002 [2]: 2.9%
% of NK cells expressing CD107a, E:T 1:1, target EL4hi-003 [2]: 15%
% of NK cells expressing CD107a, E:T 1:1, target EL4hi-004 [2]: 16%
% of NK cells expressing CD107a, E:T 1:1, target EL4hi-005 [2]: 21%
% of NK cells expressing CD107a, E:T 1:1, target EL4hi-010 [2]: 34%
% of NK cells expressing CD107a, E:T 1:1, target EL4hi-011-PBMC-1 [2]: 15.5%
% of NK cells expressing CD107a, E:T 1:1, target EL4hi-011-PBMC-2 [2]: 23.5%
% of NK cells expressing CD107a, E:T 1:1, target EL4hi/lo-001 [2]: 2.8%
% of NK cells expressing CD107a, E:T 1:1, target RBH009^a (AML) [2]: 8.5%
% of NK cells expressing CD107a, E:T 1:1, target RBH009^b (AML) [2]: 8%
% of NK cells expressing CD107a, E:T 1:1, target RBH013^a (AML) [2]: 10%
% of NK cells expressing CD107a, E:T 1:1, target RBH013^b (AML) [2]: 22%
% of NK cells expressing CD107a, E:T 1:1, target RMH003^a (AML) [2]: 30%
% of NK cells expressing CD107a, E:T 1:1, target RMH003^b (AML) [2]: 33%
% of NK cells expressing CD107a, E:T 1:1, target RMH003^c (AML) [2]: 38%
% of NK cells expressing CD107a, E:T 1:1, target RMH007 (B-ALL) [2]: 16.4%
% of NK cells expressing CD107a, E:T 1:1, target RMH008^a (AML) [2]: 9%
% of NK cells expressing CD107a, E:T 1:1, target RMH008^b (AML) [2]: 16%
% of NK cells expressing CD107a, E:T 1:1, target RMH008^c (AML) [2]: 8.7%
% of NK cells expressing CD107a, E:T 1:1, target RMH009^a (B-ALL) [2]: 3%
% of NK cells expressing CD107a, E:T 1:1, target RMH009^b (B-ALL) [2]: 1.7%
% of NK cells expressing CD107a, E:T 1:1, target RMH009^c (B-ALL) [2]: 7.4%
% of NK cells expressing CD107a, E:T 1:1, target RMH010^a (AML) [2]: 14%
% of NK cells expressing CD107a, E:T 1:1, target RMH010^b (AML) [2]: 25.5%
% of NK cells expressing CD107a, E:T 1:1, target RMH011 (AML) [2]: 6.6%
% of NK cells expressing CD107a, E:T 1:1, target TF-1 (GM-CSF) [2]: 0.7%
% of NK cells expressing CD107a, E:T 1:1, target TF-1(IL-3) [2]: 1.45%
IC50, IL-3-dependent TF-1 cell proliferation [2]: 5 nM
Molecule: chimeric antibody CSL360

antibody concentration for almost complete ADCC lysis of Raji-CD123 high cells, E:T 50:1 [2]: 1 ng/mL
Molecule: defucosylated hCSL360 produced by kifunensine treatment (hCSL360kif) (antibody)

antibody concentration for almost complete ADCC lysis of Raji-CD123 high cells, E:T 50:1 [2]: 1 ng/mL
Molecule: humanised CSL360S239D/A330L/I332E (hCSL360Fc3) (from UniProt P01857 1-330) (antibody)

Kd [1]: 12.8 nM
IC50, IL-3-dependent TF-1 cell proliferation [2]: 19 nM
fold decrease in affinity compared to the chimeric MAb (CSL360) [3]: 10 fold
Molecule: humanised variant of CSL360 (hCSL360) (antibody)

IL-3 (1 nM)-stimulated CD131 tyrosine phosphorylation, STAT-5 and Akt activation in TF-1 cells; 7G3 concentration that blocks completely [4]: 100 nM
B1: monoclonal antibody (MAb) 7G3 (antibody, from another filing, V domains shown)
VH: EVQLQQSGPELVKPGASVKMSCKASGYTFTDYYMKWVKQSHGKSLEWIGDIIPSNGATFYNQKFKGKATLTVDRSSSTAYMHLNSLTSEDSAVYYCTRSHLLRASWFAYWGQGTLVTVSA
VL: DFVMTQSPSSLTVTAGEKVTMSCKSSQSLLNSGNQKNYLTWYLQKPGQPPKLLIYWASTRESGVPDRFTGSGSGTDFTLTISSVQAEDLAVYYCQNDYSYPYTFGGGTKLEIKR
